Patent US7056679 (ANTYRA, dated 2006)

T1: DGI-2 polypeptide (UniProt Q15004 1-111, limits assumed)
T1 construct: Soluble recombinant protein coated at 500 ng/well; vector tag of pIVEX2.3-MCS not described for this construct; also called KIAA0101
T1 sequence (looked up): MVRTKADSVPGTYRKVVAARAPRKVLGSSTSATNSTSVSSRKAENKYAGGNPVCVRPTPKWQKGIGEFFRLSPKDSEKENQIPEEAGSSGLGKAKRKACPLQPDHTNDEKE


How the values were obtained:
Assay in all cases: phage ELISA
[1] = target: T2, antibody raised against ETAG
T2 construct: Coated at 500 ng/well; also called E-tag antibody
Summary of the method: (§1)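 Phage from individual clones were bound for 2 h at RT to wells coated with 500 ng DGI-2, LDH (non-specific), anti-E-tag antibody (positive control) or milk (negative control). Bound phage were detected with HRP-anti-M13 and ABTS at A405; positive clones gave ≥2-fold signal over background.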

[2] = target: T3, lactate dehydrogenase (LDH)
T3 construct: Coated at 500 ng/well as non-specific target; also called LDH polypeptide
Summary of the method: as §1

[3] = target: T1, DGI-2 polypeptide
Summary of the method: as §1

Row | Binder | ETAG (OD) [1] | LDH (OD) [2] | DGI-2 (OD) [3] | DGI-2/LDH [3]
1 | DGI-2-40F-4-F122 (peptide) peptide: RSQVRVVSRERSTPVLHRIECLLFSGWCVTSGSDEGVVWGAAAGAPVPYPDPLEPRP | 8.1 OD | 0.8 OD | 4.7 OD | 5.7 ratio
2 | RDTTSQWSWISRGWEFPGWRAAAGAPVPYPDPLEPRP [DGI-2-20R-3-C2] | 11.9 OD | 1.1 OD | 6.2 OD | 5.8 ratio
3 | SWACGLLWPGECGSQVARRGAAAGAPVPYPDPLEPRP [DGI-2-20R-3-D127] | 15.4 OD | 1 OD | 6.7 OD | 6.4 ratio
4 | FRMWVQSCFWGQPGTGCGEGAAAGAPVPYPDPLEPRP [DGI-2-20R-3-D2] | 14.3 OD | 1.1 OD | 7.9 OD | 7.5 ratio
5 | GGGRESWGGGWFMGWGSGAGAAAGAPVPYPDPLEPRP [DGI-2-20R-3-A6] | 17.7 OD | 1 OD | 5.8 OD | 5.9 ratio
6 | VHSQGRMWAIPGLRGGTGASAAAGAPVPYPDPLEPRP [DGI-2-20R-3-D7] | 18.7 OD | 1 OD | 5.2 OD | 5.3 ratio
7 | QLDCLVWGLPGLRCDRPLEQAAAGAPVPYPDPLEPRP [DGI-2-20R-3-B10] | 17 OD | 1 OD | 7.8 OD | 7.6 ratio
8 | LPQSRWLSEAWASWVDGVVDAAAGAPVPYPDPLEPRP [DGI-2-20F-4-F9] | 19.6 OD | 1 OD | 5.6 OD | 5.9 ratio
9 | RERWGTAWNLWTEGVVDVRPAAAGAPVPYPDPLEPRP [DGI-2-20F-3-B5] | 16.4 OD | 0.9 OD | 6.1 OD | 6.6 ratio
10 | DGKHLTKWSGRGWWSAWVGGAAAGAPVPYPDPLEPRP [DGI-2-20R-3-B12] | 15.5 OD | 1 OD | 5.7 OD | 5.5 ratio
11 | QMSRVAFSPGESWRRWVEGVAAAGAPVPYPDPLEPRP [DGI-2-20R-3-A2] | 14.2 OD | 1 OD | 7.5 OD | 7.5 ratio
12 | RPVVCLAGLTLAQFGWVFPGWRGWSAAAGAPVPYPDPLEPRP [DGI-2-20C-3-C1039] | 11.8 OD | 1 OD | 4.7 OD | 4.7 ratio
13 | LFSATGCALMSGFCLGSDGSAAAGAPVPYPDPLEPRP [DGI-2-20R-3-C1] | 14 OD | 1 OD | 8.2 OD | 8.3 ratio
14 | WGCVFRQWASGSGAGCARRHAAAGAPVPYPDPLEPRP [DGI-2-20R-3-D9] | 19.7 OD | 1 OD | 6.7 OD | 6.4 ratio
15 | DGI-2-40F-3-C8 (peptide) peptide: YGTAGLFLRRACTMSDPGDPLGRRGYTGWGVLWDEWVTGSAAAGAPVPYPDPLEPRP | 13.6 OD | 0.9 OD | 5.7 OD | 6 ratio
16 | SLECWAMPGMVVRLVGCDGPAAAGAPVPYPDPLEPRP [DGI-2-20R-4-H112] | 12.3 OD | 1.1 OD | 6.6 OD | 6 ratio
17 | MFQDVACDLWHSVRCLRRDVAAAGAPVPYPDPLEPRP [DGI-2-20R-3-B3] | 16.1 OD | 1 OD | 4.9 OD | 4.8 ratio
18 | RSIRLQLIDEACQFFDGLCTAAAGAPVPYPDPLEPRP [DGI-2-20R-3-A8] | 15.3 OD | 1.1 OD | 6.9 OD | 6.4 ratio
19 | VVRQGCMAFSGLCSGVTESEAAAGAPVPYPDPLEPRP [DGI-2-20R-3-C8] | 21.1 OD | 1.1 OD | 5.6 OD | 5.3 ratio

Row | Binder | ETAG (OD) [1] | LDH (OD) [2] | DGI-2 (OD) [3] | DGI-2/LDH [3]
20 | DGI-2-40F-3-D1044 (peptide) peptide: DRVARLATPTAGTMAAGSLGYERTVGCDSQDWFRCVVEGLAAAGAPVPYPDPLEPRP | 17.7 OD | 1.3 OD | 7.9 OD | 6.2 ratio
21 | VSFAHDWGRWWYQWEVGAAAGAPVPYPDPLEPRP [DGI-2-20R-4-G22] | 12.9 OD | 1.2 OD | 7.9 OD | 6.5 ratio
22 | TIDVARRFGYGWWDLWLDGDAAAGAPVPYPDPLEPRP [DGI-2-20R-3-C3] | 20.2 OD | 1.1 OD | 7.9 OD | 7 ratio
23 | REFFNQASRGAWGYMFREWVEGAAAGAPVPYPDPLEPRP [DGI-2-40F-3-A1] | 9.9 OD | 0.9 OD | 4.5 OD | 5.2 ratio
24 | VLQRSLWKDWVDGVMHGGGSRGVAAAGAPVPYPDPLEPRP [DGI-2-20R-3-A7] | 13.9 OD | 0.9 OD | 4.8 OD | 5.1 ratio
25 | RDTMCGSVSWGIPGCEYSGMAAAGAPVPYPDPLEPRP [DGI-2-20R-4-G122] | 13.9 OD | 1.1 OD | 7.6 OD | 7.1 ratio
26 | DGI-2-40F-4-E62 (peptide) peptide: TCWHRGLNVVRYSVNFGVRDARLTTQGMAWFPPGCGQGCVAAAGAPVPYPDPLEPRP | 14.8 OD | 1 OD | 4.6 OD | 4.5 ratio
27 | WAASCFWGHVALGCGRNGQGAAAGAPVPYPDPLEPRP [DGI-2-20R-3-A11] | 14.7 OD | 1.1 OD | 6.2 OD | 5.7 ratio
28 | MGVVLECEGGWSIPGQTCYFAAAGAPVPYPDPLEPRP [DGI-2-20R-3-C7] | 18 OD | 1 OD | 5.1 OD | 5.1 ratio
29 | DGI-2-40F-3-C424 (peptide) peptide: TVKFQGVVQERSRIAGFRYCGDHAVSWGLAGCPALRDKLQAAAGAPVPYPDPLEPRP | 14.8 OD | 1.1 OD | 5.5 OD | 5.2 ratio
30 | RRILPWSFPGCGRMCAAAGAPVPYPDPLEPRP [DGJ-2-20R-3-A10] | 16.4 OD | 1.1 OD | 6.2 OD | 5.9 ratio
31 | VLGADAGMIWFMDGCGIRCRAAAGAPVPYPDPLEPRP [DGI-2-20R-4-E6] | 19.1 OD | 1 OD | 7 OD | 7 ratio
32 | DQRVVGSGWFERLRNWYDRAAAAGAPVPYPDPLEPRP [DGI-2-20R-4-G99] | 14.1 OD | 1 OD | 7.5 OD | 7.2 ratio
33 | GWGCSVPGILCVGGHRQGGGAAAGAPVPYPDPLEPRP [DGI-2-20R-3-B11] | 16.9 OD | 1 OD | 5.9 OD | 5.7 ratio
34 | DGI-2-40F-4-F97 (peptide) peptide: QVGGMTQVGATVLSVVTGRGSCDGEDAWYPPGVTVGLGLCAAAGAPVPYPDPLEPRP | 14 OD | 1 OD | 6.7 OD | 6.4 ratio
35 | YTPASILTGFQRGYEGAGNGAAAGAPVPYPDPLEPRP [DGI-2-20R-4-G7] | 11.6 OD | 1.2 OD | 4.7 OD | 3.9 ratio
36 | WWERFVWGRPVDDGVVVMATAAAGAPVPYPDPLEPRP [DGI-2-20R-3-B1] | 14.5 OD | 1 OD | 6.3 OD | 6.2 ratio
37 | EGNWFCAVFRGFCVGDRGPEAAAGAPVPYPDPLEPRP [DGI-2-20R-3-A1] | 11.1 OD | 1.1 OD | 7.1 OD | 6.3 ratio
